Biological target: T1, proliferating cell nuclear antigen (PCNA) (human, UniProt P12004 1-261)
T1 construct: Endogenous intracellular protein, immunoprecipitated from HT29 cell lysate
Assay: not described

T1 sequence (P12004 whole entry): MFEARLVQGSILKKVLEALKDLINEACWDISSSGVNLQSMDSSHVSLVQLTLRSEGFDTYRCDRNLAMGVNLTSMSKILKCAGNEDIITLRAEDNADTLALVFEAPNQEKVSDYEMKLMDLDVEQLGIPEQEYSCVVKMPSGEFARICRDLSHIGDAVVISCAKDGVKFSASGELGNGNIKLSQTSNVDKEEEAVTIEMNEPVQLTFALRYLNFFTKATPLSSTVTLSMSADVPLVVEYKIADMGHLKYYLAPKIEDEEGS

- binding result: binds
Binder: MPYSTELIFYIEMDP (15-residue polypeptide fragment) [polypeptide P15]

From patent US20160303183A1 (WUHAN YICHENG BIOTECH, published 2016)
